The text below walks through data of patent publication US20220135700A1 (published 2022).

Broadly, the Kd is the equilibrium constant for the complex coming apart. A word on the koff: it is a measure of how fast the partners let go of each other. Read a low koff as a long-lived complex. By kon is commonly meant the rate constant with which the complex forms. A lower kon goes with slow association.

The target of experiment [1] is T1, HER2 (form used in the assay not stated) (human, UniProt P04626 23-652, limits assumed).
T1 construct: also called ErbB2
Briefly: method not stated.

In experiment [2] the target is T2, HER2 on the surface of HER2 overexpressing cancer cells (BT474) (human, UniProt P04626 23-1255).
T2 construct: whole, on cells; also called ErbB2; HER2/Neu
The experiment is described as follows: flow cytometry on BT474 cells, Alexa488-labelled agent. (In flow cytometry, cells or beads pass a laser one at a time.)

The target in experiment [3] is T1, HER2 (form used in the assay not stated). Briefly: method not stated. This is another data set of the same source.
Experiment [4] addresses T2, HER2 on the surface of HER2 …. Briefly: flow cytometry, dissociation from BT474 cells in the presence of a competing DARPin (FIG. 18A).
Protocol: Corresponding to 100 μl cell suspension, samples were washed twice in 1 ml PBS (0.2% NaN₃, 1% BSA) and centrifuged at 600 g for 30 sec at room temperature. Cells were resuspended in 1 ml PBS (0.2% NaN₃, 1% BSA) containing 100 nM of equivalent unlabeled binding agent. The dissociation reaction was incubated for the indicated times (15, 30, 60, 120, 180 and 240 min) at room temperature while continuously stirring in the dark. Dissociation was stopped by placing the cell pellets on ice. Each sample was washed once with 1 ml cold PBS.

Read-outs that look alike come from different tables or passages of the source.

B1: DARPin 929 (designed binder)
chain: MRGSHHHHHHGSDLGKKLLEAARAGQDDEVRILMANGADVNAHDFYGITPLHLAANFGHLEIVEVLLKHGADVNAFDYDNTPLHLAADAGHLEIVEVLLKYGADVNASDRDGHTPLHLAAREGHLEIVEVLLKNGADVNAQDKFGKTAFDISIDNGNEDLAEILQKLN
With B1, the dissociation constant (Kd) in experiment [1] was 1 nM. In experiment [2], this molecule showed an equilibrium dissociation constant (Kd) of 33.5 nM, a koff of 0.00221 s⁻¹ and a kon of 69000 M⁻¹ s⁻¹. Besides, in experiment [3], the dissociation constant (Kd) worked out at 3.8 nM, the koff worked out at 0.0008 s⁻¹ and the kon stood at 200000 M⁻¹ s⁻¹.

B2: 9_29-(G4S)4-G3 (designed binder)
chain: MRGSHHHHHHGSDLGKKLLEAARAGQDDEVRILMANGADVNAHDFYGITPLHLAANFGHLEIVEVLLKHGADVNAFDYDNTPLHLAADAGHLEIVEVLLKYGADVNASDRDGHTPLHLAAREGHLEIVEVLLKNGADVNAQDKFGKTAFDISIDNGNEDLAEILQKLGGGGSGGGGSGGGGSGGGGSRSDLGKKLLEAARAGQDDEVRILMANGADVNAKDEYGLTPLYLATAHGHLEIVEVLLKNGADVNAVDAIGFTPLHLAAFIGHLEIAEVLLKHGADVNAQDKFGKTAFDISIGNGNEDLAEILQKLN
notes: also called 9_20_G
As to B2, the “off-rate, times lower than monovalent G3” value in experiment [4] is 10 fold.

B3: 9_26-(G4S)4-G3 (designed binder)
chain: MRGSHHHHHHGSDLGKKLLEAARAGQDDEVRILMANGADVNAKDFYGITPLHLAAAYGHLEIVEVLLKHGADVNAHDWNGWTPLHLAAKYGHLEIVEVLLKHGADVNAIDNAGKTPLHLAAAHGHLEIVEVLLKYGADVNAQDKFGKTAFDISIDNGNEDLAEILQKLGGGGSGGGGSGGGGSGGGGSRSDLGKKLLEAARAGQDDEVRILMANGADVNAKDEYGLTPLYLATAHGHLEIVEVLLKNGADVNAVDAIGFTPLHLAAFIGHLEIAEVLLKHGADVNAQDKFGKTAFDISIGNGNEDLAEILQKLN
notes: also called 6_20_G
For B3, the “off-rate, times lower than monovalent G3” value in experiment [4] stood at 10 fold.
